Experimental findings from publication PMC13021935 are described below.

For this assay, the target named is CENP-A nucleosomes reconstituted on an 18 x 601 DNA array (xlCENP-A-myc/H4 tetramer with H2A/H2B dimers) (X. laevis | not stated) (UniProt Q569M3).

On to “Xenopus laevis M18BP1-L S760D (xlM18BP1-L^S760D-3xFLAG) (natural protein)”, for which the centromere localisation (immunofluorescence, FLAG) on sperm nuclei in interphase egg extract immunodepleted of endogenous CENP-C and M18BP1, relative to WT FLAG-M18BP1-L (% of WT levels) came to 30.
